This is an account of results in patent publication US20220411483A1 (Chugai, published 2022).

Where a chain is given by its changes, count along the chain named.

Sequences and labels used below:
B1: IL6R-P751/IL6R-L (antibody, human IgG1, kappa)
heavy: QVQLQESGPGLVKPSETLSLTCAVSGHSISHDHAWSWVRQPPGEGLEWIGFISYSGITNYNPSLQGRVTISRDNSKNTLYLQMNSLRAEDTAVYYCARSLARTTAMDYWGEGTLVTVSSASTKGPSVFPLAPSSKSTSGGTAALGCLVKDYFPEPVTVSWNSGALTSGVHTFPAVLQSSGLYSLSSVVTVPSSSLGTQTYICNVNHKPSNTKVDKKVEPKSCDKTHTCPPCPAPELFGQDSVMLFPPKPKDTLMISRTPEVTCVVVDVSPEDPEVKFNWYVDGVEVHNAKTKPREEQENSTYRVVSVLTVLHQDWLNGKEYKCEVSNKALPAPIEKTISKAKGQPREPQVYTLPPSRDELTKNQVSLTCLVKGFYPSDIAVEWESNGQPENNYKTTPPVLDSDGSFFLYSKLTVDKSRWQQGNVFSCSVMHEALHNHYTQKSLSLSP
light: not shown
B2: IL6R-P758/IL6R-L (antibody, human IgG1, kappa)
heavy: B1 heavy with F237L, Q239D, M243F, P270D, P273G, E298Y, E324K, A329G, A332S, P333S
light: not shown
B3: IL6R-P776/IL6R-L (antibody, human IgG1, kappa)
heavy: B1 heavy with F237L, Q239G, M243F, P270H, P273G, E298Y
light: not shown
B4: IL6R-P755/IL6R-L (antibody, human IgG1, kappa)
heavy: B1 heavy with F237L, S326H, A332H
light: not shown
B5: IL6R-P771/IL6R-L (antibody, human IgG1, kappa)
heavy: B1 heavy with F237L, Q239G, M243F, V266I, P270H, P273G, E298Y, E324A
light: not shown
B6: IL6R-P759/IL6R-L (antibody, human IgG1, kappa)
heavy: QVQLQESGPGLVKPSETLSLTCAVSGHSISHDHAWSWVRQPPGEGLEWIGFISYSGITNYNPSLQGRVTISRDNSKNTLYLQMNSLRAEDTAVYYCARSLARTTAMDYWGEGTLVTVSSASTKGPSVFPLAPSSKSTSGGTAALGCLVKDYFPEPVTVSWNSGALTSGVHTFPAVLQSSGLYSLSSVVTVPSSSLGTQTYICNVNHKPSNTKVDKKVEPKSCDKTHTCPPCPAPDLLGDDSVFLFPPKPKDTLMISRTPEVTCVVVDVSDEDGEVKFNWYVDGVEVHNAKTKPREEQYNSTYRVVSVLTVLHQDWLNGKEYKCKVSNKGLPSSIEKTISKAKGQPREPQVYTLPPSRDELTKNQVSLTCLVKGFYPSDIAVEWESNGQPENNYKTTPPVLDSDGSFFLYSKLTVDKSRWQQGNVFSCSVMHEALHNHYTQKSLSLSP
light: not shown
B7: IL6R-P767/IL6R-L (antibody, human IgG1, kappa)
heavy: B6 heavy with D235E, D239G, V266I, D270E
light: not shown
B8: IL6R-P754/IL6R-L (antibody, human IgG1, kappa)
heavy: B1 heavy with F237L, E324A, S326H, A332H
light: not shown
B9: IL6R-P756/IL6R-L (antibody, human IgG1, kappa)
heavy: B6 heavy with D239G, V266I, S269A, D270E
light: not shown
B10: IL6R-P757/IL6R-L (antibody, human IgG1, kappa)
heavy: B6 heavy with D235E, D239G, V266I, S269A, D270E
light: not shown
B11: IL6R-P770/IL6R-L (antibody, human IgG1, kappa)
heavy: B6 heavy with D235E, D239G, V266I, D270H
light: not shown
B12: IL6R-P764/IL6R-L (antibody, human IgG1, kappa)
heavy: B6 heavy with D235E, D239G, V266I, D270E, G329A, S332A, S333P
light: not shown
B13: IL6R-P766/IL6R-L (antibody, human IgG1, kappa)
heavy: B6 heavy with D235E, D239G, S269A, D270E
light: not shown
B14: IL6R-P765/IL6R-L (antibody, human IgG1, kappa)
heavy: B6 heavy with D235E, D239G, V266I, S269A, D270H, G329A, S332A, S333P
light: not shown
B15: IL6R-P752/IL6R-L (antibody, human IgG1, kappa)
heavy: B1 heavy with E324A, S326H
light: not shown
B16: IL6R-P768/IL6R-L (antibody, human IgG1, kappa)
heavy: B6 heavy with D235E, D239G, V266I, S269A, D270H
light: not shown
B17: IL6R-P772/IL6R-L (antibody, human IgG1, kappa)
heavy: B1 heavy with F237L, Q239G, M243F, V266I, P270H, P273G, E298Y
light: not shown
B18: IL6R-P753/IL6R-L (antibody, human IgG1, kappa)
heavy: B1 heavy with S326H
light: not shown
B19: IL6R-P774/IL6R-L (antibody, human IgG1, kappa)
heavy: B1 heavy with F237L, Q239G, M243F, S269A, P270E, P273G, E298Y
light: not shown
B20: IL6R-P763/IL6R-L (antibody, human IgG1, kappa)
heavy: B6 heavy with D235E, D239G, S269A, D270E, G329A, S332A, S333P
light: not shown
B21: IL6R-P773/IL6R-L (antibody, human IgG1, kappa)
heavy: B6 heavy with D235E, D239G, S269A, D270E, K324A, G329A, S332A, S333P
light: not shown
B22: IL6R-P760/IL6R-L (antibody, human IgG1, kappa)
heavy: B6 heavy with D235E, D270E
light: not shown
B23: IL6R-P769/IL6R-L (antibody, human IgG1, kappa)
heavy: B6 heavy with D235E, D239G, V266I, D270H, G329A, S332A, S333P
light: not shown
B24: IL6R-P761/IL6R-L (antibody, human IgG1, kappa)
heavy: B6 heavy with D270E
light: not shown
B25: IL6R-P762/IL6R-L (antibody, human IgG1, kappa)
heavy: B6 heavy with D235E, D239G, D270H
light: not shown
B26: IL6R-P775/IL6R-L (antibody, human IgG1, kappa)
heavy: B6 heavy with D235E, D239G, D270H, K324A, G329A, S332A, S333P
light: not shown

T3 sequence (P02745 23-245 limits assumed, chain 1 of 3): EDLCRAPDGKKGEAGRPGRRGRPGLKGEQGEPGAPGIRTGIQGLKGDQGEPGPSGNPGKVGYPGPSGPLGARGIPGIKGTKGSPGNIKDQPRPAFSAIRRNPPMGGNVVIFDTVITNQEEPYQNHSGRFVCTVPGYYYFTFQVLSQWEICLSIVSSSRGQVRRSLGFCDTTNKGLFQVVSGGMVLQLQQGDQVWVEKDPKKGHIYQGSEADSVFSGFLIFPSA
T3 sequence (P02746 28-253 limits assumed, chain 2 of 3): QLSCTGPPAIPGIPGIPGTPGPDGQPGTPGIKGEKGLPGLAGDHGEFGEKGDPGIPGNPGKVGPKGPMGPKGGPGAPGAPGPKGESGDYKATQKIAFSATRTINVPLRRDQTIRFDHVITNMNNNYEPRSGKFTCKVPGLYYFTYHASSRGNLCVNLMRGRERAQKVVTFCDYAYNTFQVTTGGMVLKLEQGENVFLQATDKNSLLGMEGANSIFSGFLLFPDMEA
T3 sequence (P02747 29-245 limits assumed, chain 3 of 3): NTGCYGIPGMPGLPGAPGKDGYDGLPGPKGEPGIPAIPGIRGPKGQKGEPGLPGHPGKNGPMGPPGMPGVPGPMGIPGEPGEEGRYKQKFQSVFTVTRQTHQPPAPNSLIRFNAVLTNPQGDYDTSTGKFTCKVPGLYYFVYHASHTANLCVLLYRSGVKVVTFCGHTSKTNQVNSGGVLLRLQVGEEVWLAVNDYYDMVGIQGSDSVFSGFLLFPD

The first assay has as its target T1, FcgRIIaR (human, UniProt P12318 34-217).
T1 construct: extracellular domain; also called FcγRIIa R type; FcγRIIa (R type)
T1 sequence (looked up): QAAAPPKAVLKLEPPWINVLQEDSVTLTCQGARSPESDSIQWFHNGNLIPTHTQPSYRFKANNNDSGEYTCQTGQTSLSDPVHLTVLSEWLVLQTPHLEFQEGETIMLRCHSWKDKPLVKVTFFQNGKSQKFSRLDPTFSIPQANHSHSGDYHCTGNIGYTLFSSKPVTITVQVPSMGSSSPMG
As to the kind of experiment: SPR, amount bound per captured antibody. A general note: In SPR one partner is held on a chip, and binding of the other changes the refractive index at the surface.
Regarding B1, the “Relative FcgRIIaR-binding Activity” value stood at 7.4 IL6R-G1d/IL6R-L=100.
The same measure, in the same setting: under B2 stands 90.6 IL6R-G1d/IL6R-L=100.
Still for that read-out and setting: the figure for B3 is 77.4 IL6R-G1d/IL6R-L=100; for B4 it is 9.8 IL6R-G1d/IL6R-L=100.
The same measure, in the same setting: under B5 stands 75.8 IL6R-G1d/IL6R-L=100.
In the case of B6, the “Relative FcgRIIaR-binding Activity” value worked out at 96.5 IL6R-G1d/IL6R-L=100.
Still for that read-out and setting: under B7 stands 84.2 IL6R-G1d/IL6R-L=100.
On the same count and under the same terms, under B8 stands 5.6 IL6R-G1d/IL6R-L=100; under B9, 92.4 IL6R-G1d/IL6R-L=100; under B10, 89.2 IL6R-G1d/IL6R-L=100.
For B11, the “Relative FcgRIIaR-binding Activity” value amounted to 78.2 IL6R-G1d/IL6R-L=100.
Same read-out and setting: under B12 stands 89.5 IL6R-G1d/IL6R-L=100; under B13, 88.1 IL6R-G1d/IL6R-L=100; under B14, 93.2 IL6R-G1d/IL6R-L=100.
Same read-out and setting: the figure for B15 is 7.2 IL6R-G1d/IL6R-L=100; for B16 it is 80.9 IL6R-G1d/IL6R-L=100; for B17 it is 84.3 IL6R-G1d/IL6R-L=100.
On the same count and under the same terms, the figure for B18 is 10.4 IL6R-G1d/IL6R-L=100.
Regarding B19, the “Relative FcgRIIaR-binding Activity” value amounted to 98.8 IL6R-G1d/IL6R-L=100.
Same read-out and setting: the figure for B20 is 101 IL6R-G1d/IL6R-L=100; for B21 it is 87.3 IL6R-G1d/IL6R-L=100; for B22 it is 97.1 IL6R-G1d/IL6R-L=100.
On the same count and under the same terms, the figure for B23 is 86.7 IL6R-G1d/IL6R-L=100.
The same measure, in the same setting: the figure for B24 is 103 IL6R-G1d/IL6R-L=100; for B25 it is 75.8 IL6R-G1d/IL6R-L=100.
With B26, the “Relative FcgRIIaR-binding Activity” value came to 64.2 IL6R-G1d/IL6R-L=100.

The next assay concerns the target T2, FcgRIIb (human, UniProt P31994 43-217).
T2 construct: extracellular domain; also called FcγRIIb
T2 sequence (looked up): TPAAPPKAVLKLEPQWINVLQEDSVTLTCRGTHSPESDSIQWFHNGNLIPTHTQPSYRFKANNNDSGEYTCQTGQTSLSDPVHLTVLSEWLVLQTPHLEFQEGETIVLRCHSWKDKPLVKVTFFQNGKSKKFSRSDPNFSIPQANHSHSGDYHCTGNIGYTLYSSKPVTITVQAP
As to the kind of experiment: SPR, amount bound per captured antibody.
As for B1, the “Relative FcgRIIb-binding Activity” value is 72.5 IL6R-G1d/IL6R-L=100.
The same measure, in the same setting: the figure for B2 is 285 IL6R-G1d/IL6R-L=100.
For B3, the “Relative FcgRIIb-binding Activity” value worked out at 190 IL6R-G1d/IL6R-L=100.
On the same count and under the same terms, the figure for B4 is 130 IL6R-G1d/IL6R-L=100.
Regarding B5, the “Relative FcgRIIb-binding Activity” value was determined as 195 IL6R-G1d/IL6R-L=100.
On the same count and under the same terms, under B6 stands 305 IL6R-G1d/IL6R-L=100.
On the same count and under the same terms, under B7 stands 318 IL6R-G1d/IL6R-L=100; under B8, 85.8 IL6R-G1d/IL6R-L=100.
For the molecule B9, the “Relative FcgRIIb-binding Activity” value is 323 IL6R-G1d/IL6R-L=100.
Still for that read-out and setting: the figure for B10 is 327 IL6R-G1d/IL6R-L=100.
Same read-out and setting: under B11 stands 188 IL6R-G1d/IL6R-L=100.
On the same count and under the same terms, the figure for B12 is 329 IL6R-G1d/IL6R-L=100.
B13: the “Relative FcgRIIb-binding Activity” value was found to be 286 IL6R-G1d/IL6R-L=100.
In the case of B14, the “Relative FcgRIIb-binding Activity” value was found to be 340 IL6R-G1d/IL6R-L=100.
On the same count and under the same terms, the figure for B15 is 62.9 IL6R-G1d/IL6R-L=100; for B16 it is 305 IL6R-G1d/IL6R-L=100.
On the same count and under the same terms, under B17 stands 196 IL6R-G1d/IL6R-L=100; under B18, 103 IL6R-G1d/IL6R-L=100; under B19, 200 IL6R-G1d/IL6R-L=100.
In the case of B20, the “Relative FcgRIIb-binding Activity” value amounted to 332 IL6R-G1d/IL6R-L=100.
Take B21: the “Relative FcgRIIb-binding Activity” value came out at 192 IL6R-G1d/IL6R-L=100.
On the same count and under the same terms, under B22 stands 304 IL6R-G1d/IL6R-L=100; under B23, 196 IL6R-G1d/IL6R-L=100; under B24, 320 IL6R-G1d/IL6R-L=100.
B25: the “Relative FcgRIIb-binding Activity” value came out at 252 IL6R-G1d/IL6R-L=100.
Same read-out and setting: the figure for B26 is 180 IL6R-G1d/IL6R-L=100.

The next assay addresses T3, human complement C1q (human, UniProt P02745 23-245; P02746 28-253; P02747 29-245).
T3 construct: Bought (PROSPEC or Calbiochem); also called human C1q
As to the kind of experiment: SPR, C1q bound per antibody captured on Protein L. The method, boiled down: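 Antibodies captured on Protein L immobilized on a CM4 chip were exposed to human C1q diluted in HBS-EP+ running buffer at 25° C. C1q binding was normalized as C1q bound divided by antibody captured. The surface was regenerated with 10 mM glycine-HCl, pH 1.5.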
In the case of B1, the “Amount of C1q-binding when that for G1d is Defined as 100” value (“Amount of C1q-binding when that” below) was 13.9 G1d=100.
B2: the “Amount of C1q-binding when that” value turned out to be 2 G1d=100.
Consider B3, for which the “Amount of C1q-binding when that” value was 0.7 G1d=100.
B4: the “Amount of C1q-binding when that” value was found to be 14.4 G1d=100.
Same read-out and setting: the figure for B5 is 14.3 G1d=100; for B6 it is 14.5 G1d=100; for B7 it is 1.7 G1d=100.
On to B8, for which the “Amount of C1q-binding when that” value stood at 1.8 G1d=100.
The same measure, in the same setting: under B9 stands 15 G1d=100; under B10, 22.6 G1d=100; under B11, 1.5 G1d=100.
On the same count and under the same terms, under B12 stands 23.1 G1d=100; under B13, 21.8 G1d=100; under B14, 46.6 G1d=100.
Same read-out and setting: the figure for B15 is 1.1 G1d=100; for B16 it is 14 G1d=100; for B17 it is 21.6 G1d=100.
Regarding B18, the “Amount of C1q-binding when that” value came to 14 G1d=100.
Same read-out and setting: under B19 stands 15.2 G1d=100; under B20, 41.7 G1d=100; under B21, 1.7 G1d=100.
Consider B22, for which the “Amount of C1q-binding when that” value was 21.7 G1d=100.
Still for that read-out and setting: under B23 stands 31.3 G1d=100.
On the same count and under the same terms, under B24 stands 2.1 G1d=100; under B25, 14.6 G1d=100; under B26, 21.8 G1d=100.
